According to patent US20110045003A1 (SYNOVEX, published 2011):

What was measured:
[1] = target: T1, recombinant Cad-11 EC1 human IgG1 fusion protein (R&D Systems Cat. No. 1790-CA-050) (human, UniProt P55287 54-617, limits assumed); experiment: competition ELISA on coated recombinant human Cad-11 EC1 fusion protein; competitor biotinylated SYN0012 at 0.1 µg/ml, streptavidin-HRP, OD450
T1 construct: Bought protein; the catalogue product may hold more of the extracellular region; also called recombinant human Cad-11 EC1; recombinant human Cad-11 fusion protein; not shown: human IgG1 part of the bought fusion protein
T1 sequence: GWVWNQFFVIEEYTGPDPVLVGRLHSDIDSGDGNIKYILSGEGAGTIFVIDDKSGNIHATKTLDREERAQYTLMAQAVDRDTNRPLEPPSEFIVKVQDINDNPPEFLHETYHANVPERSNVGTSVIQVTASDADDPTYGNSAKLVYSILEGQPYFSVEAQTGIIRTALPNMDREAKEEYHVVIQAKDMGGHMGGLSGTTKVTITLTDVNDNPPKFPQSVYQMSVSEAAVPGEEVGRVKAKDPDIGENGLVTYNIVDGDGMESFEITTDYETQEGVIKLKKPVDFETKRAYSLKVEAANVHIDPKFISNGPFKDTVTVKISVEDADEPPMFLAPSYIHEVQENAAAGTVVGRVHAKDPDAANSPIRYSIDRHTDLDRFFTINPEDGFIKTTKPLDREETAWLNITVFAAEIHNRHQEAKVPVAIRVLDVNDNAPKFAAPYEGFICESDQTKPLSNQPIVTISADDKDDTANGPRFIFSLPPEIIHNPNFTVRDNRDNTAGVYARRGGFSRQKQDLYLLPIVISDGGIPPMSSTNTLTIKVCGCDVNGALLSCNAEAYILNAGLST
Procedure: The binding of the purified humanized composite variant antibodies (SDP011 to SDP151) to a recombinant Cad-11 EC1 human IgG1 fusion protein was assessed in a competition binding ELISA. A dilution series from 5 μg/ml to 0.0022 μg/ml of the humanized or control (SYN0012/H1M1) antibodies was premixed with a constant concentration of biotinylated murine anti-Cad-11 antibody, SYN0012/H1M1 (0.1 μg/ml, final concentration), before incubating for 1 hour at room temperature on a Nunc Immuno MaxiSorp 96 well flat bottom microtitre plate (Fisher Cat. No. DIS-971-030J) pre-coated with 0.25 μg/ml recombinant human Cad-11 EC1 (R&D Systems Cat. No. 1790-CA-050) diluted in PBS. The binding of the biotinylated mAb was detected with streptavidin-HRP (Sigma Cat. No. 55512) and tetramethylbenzidine (TMB) substrate (Invitrogen Cat. No. 00-2023).

[2] = target: T2, Peptide 1 (amino acids G1-P18 of the Cad-11 EC1 domain) (human); experiment: ELISA on coated peptide or protein, antibody at one dilution, goat anti-mouse IgG, TMB, OD450
T2 construct: Range counted on the EC1 domain; also called PEP1
T2 peptide: GWVWNQFFVIEEYTGPDP
Procedure: (§1) To determine the epitope within the Cad-11 EC1 domain that the Peptide 4 Cad-11 EC1 antibodies H1M1 and H14 bind, four different peptides spanning the first 37 amino acids of the EC1 region (see FIG. 22) were immobilized in an ELISA format and the ability of the H1M1 and H14 antibodies to bind each of the four peptides was determined. 96-well Reactibind plates were coated overnight at 4° C. with 0.3 ng/well of Peptide 1 (amino acids G1-P18 of the Cad-11 EC1 domain), 0.3 ng/well of Peptide 2 (amino acids G15-N34 of the Cad-11 EC1 domain), 0.3 ng/well of Peptide 3 (amino acids V19-Y37 of the Cad-11 EC1 domain), 0.3 ng/well of the immunogen Peptide 4 (amino acids G1-G33 of the Cad-11 EC1 domain), 20 ng of a fusion protein including the entire EC1 domain (EFL), or 20 ng of control human Ig (Fc-block). The wells were washed twice with PBS-Tween (0.05%), blocked with casein in dH₂0 for 3 hrs at 22° C. and then washed again twice with PBS-Tween (0.05%). Various dilutions of the different Peptide 4 Cad-11 EC1 domain antibodies were transferred to the peptide- or protein-coated wells, incubated for 45 min at 22° C. and then washed twice with PBS-Tween (0.05%). 100 μl of a 1/1000 dilution of goat anti-mouse IgG secondary antibody (Jackson ImmunoResearch, West Grove, Pa.) were added to each well, incubated for 30 min at 22° C. and then washed twice with PBS-Tween (0.05%). 100 μl/well of room temperature TMB reagent was added to each well and color was allowed to develop for 5 min at 22° C.

[3] = target: T3, Peptide 3 (amino acids V19-Y37 of the human Cad-11 EC1 domain) (human); experiment: as above
T3 construct: also called PEP3; peptide V19-Y37
T3 peptide: VLVGRLHSDIDSGDGNIKY
Procedure: as §1

[4] = target: T4, Peptide 2 (amino acids G15-N34 of the Cad-11 EC1 domain) (human); experiment: as above
T4 construct: Range counted on the EC1 domain; also called PEP2
T4 peptide: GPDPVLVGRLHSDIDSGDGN
Procedure: as §1

[5] = target: T5, Peptide 4 (first 33 amino acids, G1-G33, of the human Cad-11 EC1 domain) (human); experiment: ELISA on biotinylated EC1 peptides
T5 construct: also called PEP4; Peptide 4 immunogen
T5 peptide: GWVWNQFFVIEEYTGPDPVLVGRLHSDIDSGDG
Procedure: The specificity of H1M1 and H14 anti-Cad-11 antibodies was tested further using an ELISA against the first 33 amino acids of the EC1 domains of Cad-11, Cad-7, Cad-8, Cad-20, Cad-24, Cad-9, Cad-18, and MN-Cad. Peptides corresponding to the region of Cad-7, Cad-8, Cad-20, Cad-24, Cad-9, Cad-18, MN-Cad that overlapped with the G1-G33 region of the Cad-11 EC1 domain were synthesized and conjugated to biotin. 100 μl of a 30 ng/ml solution of each of these peptides in PBS-Tween (0.05%) were incubated in each well of a 96-well Netravidin plate for 2-3 hrs at 4° C. and then washed twice with PBS-Tween (0.05%). Various concentrations of the anti-Cad-11 antibody were incubated in each well for 1 hr at 22° C. and then washed twice with PBS-Tween (0.05%). 100 μl of a 1/1000 dilution of a goat anti-mouse IgG secondary antibody were added to each well, incubated for 30 min at 22° C., and then washed twice with PBS-Tween (0.05%). 100 μl/well of room temperature TMB (3,3′,5,5′-tetramethylbenzidine) reagent was added to each well and color was allowed to develop for 5 min at 22° C.

Binder | IC50 (read off the curve) [1] [µg/mL] | binding result [2] | binding result [3] | binding result [4] | fold higher binding to Cad-11 than to any of the other cadherins tested [5] [fold]
humanized anti-Cad-11 EC1 antibody SDP051 (Vκ1/VH5) (antibody, IgG4, V domains shown, humanized IgG4 (S241P), kappa) VH: EVQLVQSGAEVKKPGASVKVSCKASGYSFTGYFMNWVRQAPGQGLEWIGRINPYTGDTFYNQKFKGRVTITVDKSTSTAYMELSSLRSEDTAVYYCGRLGSRYWYFDVWGQGTTVTVSS VL: DVLMTQTPLSSPVTLGQPASISCRSSQSIIHSNGNTYLEWYLQKPGQSPQLLIYKVSNRFSGVPDRFTGSGSGTDFTLKISRVEAEDVGVYYCFQGSHVPWTFGQGTKLEIK | ~0.2 |  |  |  | 
murine H1M1 monoclonal anti-Cad-11 EC1 antibody (hybridoma H1M1, ATCC PTA-9699) (antibody, V domains shown, Biotinylated when used as the labelled competitor in Example 14; the letters are unchanged., murine antibody raised against Peptide 4; also called SYN0012; SYN0012/H1M1) VH: EVQLQQSGPELVKPGASVKISCKASGYSFTGYFMNWVKQSHGKSLEWIGRINPYTGDTFYNQKFKGKATLTVDKSSSTAHMELLSLSSEDSAVYYCGRLGSRYWYFDVWGAGTTVTVSS VL: DVLMTQTPLSLPVSLGDQASISCRSSQSIIHSNGNTYLEWYLQKPGQSPKLLIYKVSNRFSGVPDRFTGSGSGTDFTLKISRVEAEDLGVYYCFQGSHVPWTFGGGTKLEIK | ~0.2 | no binding | no binding | binds | > 100
